The assay deals with T1, FLAG-PRMT5 (UniProt O14744 1-637).
T1 construct: PRMT5, wild type; Enriched from HEK293T lysate by one FLAG step; cellular partners such as MEP50 may have come along (surmise); also called FLAG-PRMT5^WT; FLAG-tagged PRMT5; source: HEK293T, transfected, immunopurified on FLAG beads and eluted with FLAG peptide
Nature of the assay: pull-down; His-FUBP1 (from E. coli) and FLAG-PRMT5 (enriched from HEK293T lysate) in vitro, with the PUBLISH peptide as competitor. The settings on record: both partners purified.

T1 sequence (O14744 whole entry): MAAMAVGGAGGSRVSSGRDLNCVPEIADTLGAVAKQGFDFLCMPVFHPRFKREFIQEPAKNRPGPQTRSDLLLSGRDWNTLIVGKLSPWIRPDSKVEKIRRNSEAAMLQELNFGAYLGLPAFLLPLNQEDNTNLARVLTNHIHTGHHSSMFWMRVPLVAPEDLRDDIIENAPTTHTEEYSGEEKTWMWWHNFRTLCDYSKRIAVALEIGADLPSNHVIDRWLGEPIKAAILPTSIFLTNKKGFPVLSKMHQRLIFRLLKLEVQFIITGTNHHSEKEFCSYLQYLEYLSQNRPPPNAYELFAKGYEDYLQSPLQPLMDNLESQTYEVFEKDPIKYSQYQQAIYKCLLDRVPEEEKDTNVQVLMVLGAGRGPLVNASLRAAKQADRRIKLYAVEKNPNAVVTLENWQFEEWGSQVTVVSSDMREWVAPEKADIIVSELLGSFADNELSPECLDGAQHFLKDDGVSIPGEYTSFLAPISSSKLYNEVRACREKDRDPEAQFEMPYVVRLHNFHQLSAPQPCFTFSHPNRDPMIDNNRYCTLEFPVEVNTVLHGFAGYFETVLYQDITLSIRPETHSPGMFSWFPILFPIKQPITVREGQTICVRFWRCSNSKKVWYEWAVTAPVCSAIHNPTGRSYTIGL

B1: PRMT5-mediated FUBP1 methylation abolishing (PUBLISH) peptide (peptide, UniProt Q96AE4 353-367, looked up)
peptide: GPGPGGRGRGRGQGN
notes: FUBP1 amino acids 353-367, with R359/R361/R363; For cells it was delivered as BPAE/peptide nanocomplexes; also called PUBLISH^WT; source: synthetic peptide
Take B1: the binding result is reported as “binds”.
